Measurements taken from PMC2946813.

Biological target: human factor Xa (human) (UniProt P00742)
Experiment: prothrombinase activity titration

Sequence of UniProt P00742 (P00742 41-179, chain 1 of 2): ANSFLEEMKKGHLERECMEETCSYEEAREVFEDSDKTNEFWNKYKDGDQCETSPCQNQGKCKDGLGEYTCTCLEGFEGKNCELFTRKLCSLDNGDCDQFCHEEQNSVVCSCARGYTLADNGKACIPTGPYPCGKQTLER
Sequence of UniProt P00742 (P00742 235-488, chain 2 of 2): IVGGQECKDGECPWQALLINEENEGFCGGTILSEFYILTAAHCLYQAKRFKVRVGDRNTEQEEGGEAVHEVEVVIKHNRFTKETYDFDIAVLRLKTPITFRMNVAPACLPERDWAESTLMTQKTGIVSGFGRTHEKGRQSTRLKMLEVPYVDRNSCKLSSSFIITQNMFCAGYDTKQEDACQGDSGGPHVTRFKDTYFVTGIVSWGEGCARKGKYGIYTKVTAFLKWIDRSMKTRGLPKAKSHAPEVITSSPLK

Kd: 0.67 nM
Substance: plasma-derived human factor V activated with α-thrombin (from UniProt P12259 29-737) (natural protein)
